Measured values published in patent US20230002757A1 (ZHEJIANG NANOMAB TECHNOLOGY CENTER, published 2023).

B1: 504#SS16 (Fc fusion, not shown: a dimerising Fc or GST; small tags and cut ends)
VHH: EVQVVESGGGLVQAGGSLRLSCAVSGRTFSSYVMGWFRQAPGKERDFVAAISRSGGRTWYADSVKGRFTISFDNAKNTVYLQMNSLKPEDTASYYCNTDYTFAKLTAPDRRNDDWGQGTQVTVSS
notes: VHH-FC construct from HEK293 cells
B2: 504#SS8 (Fc fusion)
VHH: EVQVVESGGGLVQAGGSLRLSCTASGRTFSNYAMGWFRQAPGKEREFVASVTWGGSGTFYADSVKGRFTISRDNIKNTVYLQMNSLKPEDTAVYYCAADNVGDSWYSDDYKYWGQGTQVTVSS
notes: VHH-FC construct from HEK293 cells; not shown: The (G4S)3 linker leading to it is left out with it
B3: 504#SS30 (Fc fusion, not shown: a dimerising Fc or GST; small tags and cut ends)
VHH: EVQLVETGGGLVQAGGSLRLACEVSGRTFSSYAMGWFRQAPGREREFVASIRVSGGITDYADSVKGRFTISRDNAKDTVYLQMINLKPEDTAVYYCNADISRYRFSRGDYWGKGTLVTVSS
notes: as for B1
B4: 504#SS2 (Fc fusion)
VHH: EVQVVESGGGLVKTGDSLRLSCAASGGTISGYEMGWFRQAPGKEREFVAGISRNGRSTGYSDSAKDRFTISRDNAKNTVYLQMNSLKPEDTAVYYCAAGLKADYGDSYVDTSTRNYNYWGQGTQVTVSS
notes: as for B2
B5: 504#SS5 (Fc fusion)
VHH: QVQLVESGGGSAQAGGSLRLSCTASGRPFSIYDMGWFRQAPGKERESVAVINLSRGNTYYADSVKGRFTISLDSAKNTVYLQMNSLKPEDTAVYSCGVDRRQYGLGIPPLADYWGQGTQVTVSS
notes: as for B2
B6: 504#SS22 (Fc fusion, not shown: a dimerising Fc or GST; small tags and cut ends)
VHH: QVQLVETGGGLVQAGGSLRLSCAASGRTFSSYAMGWFRQAPGKERDFVAGISGSGGNTPYAESVKGRFTISRDNAKNTVALQMNSLKPEDTAVYYCAAKFTSSSFYYRSPREYSSWGQGTQVTVSS
notes: as for B1
B7: 504#SS7 (Fc fusion)
VHH: QVQLVESGGGLVQAGGSLTLSCAASGRTFNSYAMGWFRQAPGKEREFVAAISQNGGSQGYAEAVKDRFTISRDNTNKVVALQMNSLKPEDTAAYYCAADGDASDRSYAPPRDYKYEYWGQGTQVTVSS
notes: as for B2
B8: 504#SS14 (Fc fusion, not shown: a dimerising Fc or GST; small tags and cut ends)
VHH: QVQLVESGGGLVQPGGSLRLSCVASGFTFSSYWMYWVRQAPGKGLEWVSAIDTTGGSTAYTHSVKGRFTISRDNARNTLYLQMNNLKSEDTAVYYCANSTYFNDDPEYDRWGQGTQVTVSS
notes: as for B1
B9: 504#SS15 (Fc fusion, not shown: a dimerising Fc or GST; small tags and cut ends)
VHH: QVQLVESGGGLVQPGGSLRLSCAASGFTFSNYAMTWYRQAPGKERELVAAISSAGYTTTYAGSVKGRFTISRDNAKNTVYLQMNSLNPEDTAVYYCNAGRLSYGGSYYPNDDYWGQGTQVTVSS
notes: as for B1
B10: 504#SS29 (Fc fusion, not shown: a dimerising Fc or GST; small tags and cut ends)
VHH: QVQLVESGGGLVQAGGSLRLSCAASGRTFSGYTMGWFRRAPGKERELIANILWNSARRYYADSVKGRFTISRDNAMNTVDLQMNSLKPEDTAVYYCAVLVDSTYRFSNQGTQVTVSS
notes: as for B1
B11: 504#SS25 (Fc fusion, not shown: a dimerising Fc or GST; small tags and cut ends)
VHH: QVQLVETGGGLVQAGGSLRLSCAASGDTIFISSMAWYRQAPGKERELVASIDSDDIIYYAATVKGRFTISRDNDKPTMYLQMDTLQPEDTAVYYCRVESQDYYFDYDRDSWGQGTQVTVSS
notes: as for B1
B12: 504#SS28 (Fc fusion, not shown: a dimerising Fc or GST; small tags and cut ends)
VHH: QVQLVESGGGSVQPGGSLRLSCAVSGFTLDYYDIGWFRQAPGKERDWISCISSSDGSQYYADSVKDRFFISRDNAKNTVYLQMNSLEPGDTAVYYCAADFDTYRFCSGFGPDAYSSWGQGTQVIVSS
notes: as for B1
B13: 504#SS1 (Fc fusion)
VHH: QVQLVESGGGLVQAGGSLRLSCAASGLTFSDFAMGWFRQAPGKEREFVAAISWSGGQTYNVESAKGRFTISRDNAKNTVYLQMNKLKPDDTAVYYCAASTMVVTTVAADYKYWGQGTQVTVSS
notes: as for B2
B14: 504#SS23 (Fc fusion, not shown: a dimerising Fc or GST; small tags and cut ends)
VHH: QVQLVESGGGLVQPGGSLRLSCAASGFTFSSYVMSWVRQAPGKGLEWVSAINSGGSSSSYPESVKDRFTVSRDNAKNTLYLQMNSLKPEDTAVYFCAAKNVPGFYYSDYANHEYDYWGQGTQVTVSS
notes: as for B1

Target: T1, PD-1 protein (human, UniProt Q15116 25-167, limits assumed)
T1 construct: also called human PD-1
Experiment: blocking ELISA, PD-1 coated, competitor biotin PD-L1
Description: Each well of 96-well microtiter plates is coated with 2 μg/ml of PD-1 protein in PBS and blocked with 1% BSA. […]
The intensity of the developed color is measured at 450 nm. Wells with no added PD-1 and no added VHH-FC are negative and positive controls, respectively.

T1 sequence (Q15116 25-167 limits assumed): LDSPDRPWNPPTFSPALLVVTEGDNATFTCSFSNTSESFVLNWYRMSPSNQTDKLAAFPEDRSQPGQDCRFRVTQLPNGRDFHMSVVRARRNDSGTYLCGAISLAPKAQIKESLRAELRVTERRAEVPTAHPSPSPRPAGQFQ

Row | Binder | OD450 of PD-L1 bound, antibody at 0.15 µg/mL | OD450 of PD-L1 bound, antibody at 0.61 µg/mL | OD450 of PD-L1 bound, antibody at 2.42 µg/mL | OD450 of PD-L1 bound, antibody at 9.75 µg/mL
1 | B1 | 3.48 OD450 | 3.35 OD450 | 3.22 OD450 | 3.26 OD450
2 | B2 | 3.27 OD450 | 3.28 OD450 | 3.33 OD450 | 3.27 OD450
3 | B3 | 3.33 OD450 | 3.26 OD450 | 3.29 OD450 | 3.28 OD450
4 | B4 | 3.34 OD450 | 3.23 OD450 | 3.31 OD450 | 3.31 OD450
5 | B5 | 3.18 OD450 | 1.65 OD450 | 0.14 OD450 | 0.08 OD450
6 | B6 | 3.47 OD450 | 3.34 OD450 | 3.32 OD450 | 3.28 OD450
7 | B7 | 3.32 OD450 | 3.35 OD450 | 3.31 OD450 | 3.26 OD450
8 | B8 | 3.22 OD450 | 3.25 OD450 | 3.27 OD450 | 3.36 OD450
9 | B9 | 3.53 OD450 | 3.69 OD450 | 3.57 OD450 | 3.68 OD450
10 | B10 | 3.35 OD450 | 3.36 OD450 | 3.39 OD450 | 3.31 OD450
11 | B11 | 3.32 OD450 | 3.3 OD450 | 3.36 OD450 | 3.17 OD450
12 | B12 | 3.32 OD450 | 3.28 OD450 | 3.31 OD450 | 3.27 OD450
13 | B13 | 3.19 OD450 | 3.15 OD450 | 3.26 OD450 | 3.17 OD450
14 | B14 | 3.47 OD450 | 3.31 OD450 | 3.29 OD450 | 3.28 OD450

Target: T1, PD-1 protein
Experiment: ELISA, PD-1 coated
Description: 2 μg/ml of PD-1 protein is coated on 96-well plates overnight for ELISA binding assay. Recombinant VHH-FC proteins are added to the wells and allowed to stand for a period of time, then 1 μg/ml of HRP-conjugated anti-FC antibody is added as detection antibody and the assay reagents are added. The absorbance is read at 450 nm. Binding of nivolumab serves as a positive control and plates coated with BSA are used as the negative control group.

Row | Binder | OD450 at 0.002 µg/mL | OD450 at 0.02 µg/mL | OD450 at 0.2 µg/mL | OD450 at 2 µg/mL
15 | B1 | 0.03 OD450 | 0.04 OD450 | 0.03 OD450 | 0.05 OD450
16 | B2 | 0.03 OD450 | 0.03 OD450 | 0.03 OD450 | 0.04 OD450
17 | B3 | 0.04 OD450 | 0.03 OD450 | 0.03 OD450 | 0.04 OD450
18 | B4 | 0.59 OD450 | 2.25 OD450 | 3.12 OD450 | 3.1 OD450
19 | B5 | 1.56 OD450 | 2.79 OD450 | 3.18 OD450 | 3.06 OD450
20 | B6 | 0.04 OD450 | 0.03 OD450 | 0.03 OD450 | 0.04 OD450
21 | B7 | 0.03 OD450 | 0.05 OD450 | 0.24 OD450 | 1.07 OD450
22 | B8 | 0.04 OD450 | 0.03 OD450 | 0.03 OD450 | 0.04 OD450
23 | B9 | 0.04 OD450 | 0.04 OD450 | 0.04 OD450 | 0.05 OD450
24 | B10 | 0.04 OD450 | 0.04 OD450 | 0.06 OD450 | 0.35 OD450
25 | B11 | 0.03 OD450 | 0.03 OD450 | 0.03 OD450 | 0.04 OD450
26 | B12 | 0.14 OD450 | 0.93 OD450 | 2.77 OD450 | 3.06 OD450
27 | B13 | 0.03 OD450 | 0.03 OD450 | 0.03 OD450 | 0.04 OD450
28 | B14 | 0.19 OD450 | 1.22 OD450 | 2.91 OD450 | 3 OD450
